Measured values from PMC9756947, “Structural basis of transcription regulation by CNC family transcription factor, Nrf2” (Nucleic Acids Research, 2022).
Each block holds one binder with its values, some of them ahead of it.

Columns and labels:
[1] = target: T1, human Nrf2 fragment (residues 452–560) (human, UniProt Q16236 452-560); experiment: crystal structure; Nrf2, MafG and DNA (CsMBE1 or CsMBE2) mixed at a molar ratio of 1:1:1, 10 mg/ml in 33 mM DTT; two Nrf2–MafG–DNA complexes in the asymmetric unit; settings: both partners purified
T1 construct: His6 tag removed with HRV 3C protease; also called NFE2L2; Nuclear factor erythroid 2-like factor; source: E. coli BL21 (DE3), purified (phosphocellulose P11, HisTrap HP, HiTrap SP, Superdex 75); not shown: His6, N-terminal, cleaved
T1 sequence (looked up): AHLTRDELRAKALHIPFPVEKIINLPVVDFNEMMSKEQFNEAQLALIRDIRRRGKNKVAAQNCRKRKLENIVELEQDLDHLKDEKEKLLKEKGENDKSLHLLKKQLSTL

[2] = target: T2, longer human Nrf2 fragment (residues 182–560) (human, UniProt Q16236 182-560); experiment: native gel or EMSA; EMSA to determine KD for DNA: dimers mixed with 32P-end labeled CsMBE DNA probe (about 1.6 pM) in 20 mM Tris–HCl pH 7.2, 150 mM KCl, 10 mM DTT, BSA, Tween 20, Poly(dI-dC), Ficol; 30 min (Jun–Fos) or 16 h (Nrf2–MafG, MafG homodimer); Nrf2 and MafG mixed at 3:1; complexes seen on DNA; settings: both partners purified
T2 construct: human Nrf2 (NFE2L2), residues 182-560; Used for EMSA; also called Nrf2 (182–560); wild-type Nrf2; not shown: His6, N-terminal, kept
T2 sequence (looked up): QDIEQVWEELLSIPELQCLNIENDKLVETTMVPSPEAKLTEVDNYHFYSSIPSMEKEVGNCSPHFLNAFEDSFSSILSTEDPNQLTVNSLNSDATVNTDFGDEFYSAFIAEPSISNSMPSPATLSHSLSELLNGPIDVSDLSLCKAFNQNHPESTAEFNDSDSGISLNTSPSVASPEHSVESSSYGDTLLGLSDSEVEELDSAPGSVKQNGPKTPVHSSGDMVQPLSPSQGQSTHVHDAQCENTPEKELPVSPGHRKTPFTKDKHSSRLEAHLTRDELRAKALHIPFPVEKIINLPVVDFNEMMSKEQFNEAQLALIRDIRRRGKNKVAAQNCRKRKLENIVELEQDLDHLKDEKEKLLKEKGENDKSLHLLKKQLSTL

[3] = target: the molecule itself; experiment: as above
[4] = target: T3, Nrf2 DNA-binding domain (CNC-bZIP);MafG (crystal construct) (Homo sapiens;Homo sapiens, UniProt Q16236;O15525 ;, |); experiment: X-ray crystallography; 2.6 A; EMSA: 20 mM Tris-HCl pH 7.2, 150 mM KCl, 10 mM DTT, 8 mg/ml BSA, 0.005% Tween 20, 50 ng/ml poly(dI-dC), 2.5% Ficoll; probe ~1.6 pM; 16 h (30 min for Jun-Fos); competitive assay at 4 C; gel at 4 C; settings: protein: recombinant;recombinant; tags: N-terminal His6, removed by HRV 3C (GPHM left);none; copies: 1;1; 1-nt 5' overhang on each strand (15 bp)
[5] = target: T4, human c-Fos fragment (residues 111–207) (human, UniProt P01100 111-207); experiment: native gel or EMSA; EMSA to determine KD for DNA: dimers mixed with 32P-end labeled CsMBE DNA probe (about 1.6 pM) in 20 mM Tris–HCl pH 7.2, 150 mM KCl, 10 mM DTT, BSA, Tween 20, Poly(dI-dC), Ficol; 30 min (Jun–Fos) or 16 h (Nrf2–MafG, MafG homodimer); Nrf2 and MafG mixed at 3:1; complexes seen on DNA; settings: both partners purified
T4 construct: human c-Fos, residues 111-207; The tag is cleavable with HRV 3C protease, but no removal is described; source: E. coli BL21(DE3)-RIL, precipitate solubilized in 6 M guanidine-HCl, purified (HisTrap HP), dialyzed

[6] = target: T5, Nrf2 long fragment, wild type;MafG (EMSA construct) (Homo sapiens;Homo sapiens, UniProt Q16236;O15525 ;, |); experiment: EMSA (competitive, vs MafG homodimer); EC50 of Nrf2 at 1 nM MafG; 4 C, 16 h; EMSA: 20 mM Tris-HCl pH 7.2, 150 mM KCl, 10 mM DTT, 8 mg/ml BSA, 0.005% Tween 20, 50 ng/ml poly(dI-dC), 2.5% Ficoll; probe ~1.6 pM; 16 h (30 min for Jun-Fos); competitive assay at 4 C; gel at 4 C; settings: protein: recombinant;recombinant; tags: N-terminal His6 (not removed);N-terminal His6, removed by HRV 3C (GPHM left); copies: 1;1; label: 32P 5' end; text says 30 bp)
[7] = target: MafG (EMSA construct) (Homo sapiens, UniProt O15525); experiment: EMSA; homodimer; 16 h; EMSA: 20 mM Tris-HCl pH 7.2, 150 mM KCl, 10 mM DTT, 8 mg/ml BSA, 0.005% Tween 20, 50 ng/ml poly(dI-dC), 2.5% Ficoll; probe ~1.6 pM; 16 h (30 min for Jun-Fos); competitive assay at 4 C; gel at 4 C; settings: protein: recombinant; tags: N-terminal His6, removed by HRV 3C (GPHM left); chain copies: 2; label: 32P 5' end; text says 30 bp)
[8] = target: T5, Nrf2 long fragment, wild type;MafG …; experiment: EMSA; Nrf2:MafG 3:1; MafG concentration taken as heterodimer; 16 h; EMSA: 20 mM Tris-HCl pH 7.2, 150 mM KCl, 10 mM DTT, 8 mg/ml BSA, 0.005% Tween 20, 50 ng/ml poly(dI-dC), 2.5% Ficoll; probe ~1.6 pM; 16 h (30 min for Jun-Fos); competitive assay at 4 C; gel at 4 C; settings: protein: recombinant;recombinant; tags: N-terminal His6 (not removed);N-terminal His6, removed by HRV 3C (GPHM left); copies: 1;1; label: 32P 5' end; text says 30 bp)
[9] = target: c-Jun fragment;c-Fos fragment (Homo sapiens;Homo sapiens, UniProt P05412;P01100 ;, |); experiment: EMSA; heterodimer; 30 min; EMSA: 20 mM Tris-HCl pH 7.2, 150 mM KCl, 10 mM DTT, 8 mg/ml BSA, 0.005% Tween 20, 50 ng/ml poly(dI-dC), 2.5% Ficoll; probe ~1.6 pM; 16 h (30 min for Jun-Fos); competitive assay at 4 C; gel at 4 C; settings: protein: recombinant;recombinant; tags: N-terminal His6;N-terminal His6; copies: 1;1; label: 32P 5' end; text says 30 bp)
[10] = target: T3, Nrf2 DNA-binding domain (CNC-bZIP);MafG …; experiment: X-ray crystallography; 2.3 A; EMSA: 20 mM Tris-HCl pH 7.2, 150 mM KCl, 10 mM DTT, 8 mg/ml BSA, 0.005% Tween 20, 50 ng/ml poly(dI-dC), 2.5% Ficoll; probe ~1.6 pM; 16 h (30 min for Jun-Fos); competitive assay at 4 C; gel at 4 C; settings: protein: recombinant;recombinant; tags: N-terminal His6, removed by HRV 3C (GPHM left);none; copies: 1;1; 1-nt 5' overhang on each strand (15 bp)

T4 sequence (P01100 111-207): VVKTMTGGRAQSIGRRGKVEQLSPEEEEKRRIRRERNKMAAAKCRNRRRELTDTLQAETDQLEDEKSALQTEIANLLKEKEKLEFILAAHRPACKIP
Sequence of c-Jun fragment;c-Fos fragment (P05412 other isoform, or with tags, fused parts or gaps |, chain 1 of 2): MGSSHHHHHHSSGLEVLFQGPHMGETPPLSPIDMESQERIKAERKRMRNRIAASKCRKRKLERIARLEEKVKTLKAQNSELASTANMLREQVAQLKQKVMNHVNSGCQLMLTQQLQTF
Sequence of c-Jun fragment;c-Fos fragment (P01100 other isoform, or with tags, fused parts or gaps |, chain 2 of 2): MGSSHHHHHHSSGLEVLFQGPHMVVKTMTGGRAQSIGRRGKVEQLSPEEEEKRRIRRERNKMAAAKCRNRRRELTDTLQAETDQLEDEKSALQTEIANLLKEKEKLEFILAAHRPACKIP

B3: CsMBE2 (dsDNA)
DNA 1: CACAGTGACTCAGCAG
DNA 2: GCTGCTGAGTCACTGT
binding result [4]: binds

B5: EMSA CsMBE probe (dsDNA)
DNA 1: CCGCAGTCACAGTGACTCAGCAGAATCTGA
DNA 2: CTCAGATTCTGCTGAGTCACTGTGACTGCG
apparent K (half saturation) [6]: 2.1 nM | Kd [7]: 690 pM | Kd [8]: 530 pM | Kd [9]: 129000 pM

B6: CsMBE1 (dsDNA)
DNA 1: CATGATGAGTCAGCAA
DNA 2: GTTGCTGACTCATCAT
binding result [10]: binds

Now from value to binder, other results behind:

binding result [1]: binds
B1: human MafG (residues 21–123, without any tag) (domain or fragment, UniProt O15525 21-123, looked up)
chain: GTSLTDEELVTMSVRELNQHLRGLSKEEIVQLKQRRRTLKNRGYAASCRVKRVTQKEELEKQKAELQQEVEKLASENASMKLELDALRSKYEALQTFARTVAR
notes: human MafG, residues 21-123: EHR, basic region and leucine zipper; Construct used for crystallization; source: E. coli BL21 (DE3), pAR2156-MafG, plating method, purified (HiTrap Heparin, Superdex 75)

binding result [2]: binds
B2: human MafG fragment (residues 21–123), His6 tag removed (domain or fragment, UniProt O15525 21-123, looked up)
chain: GTSLTDEELVTMSVRELNQHLRGLSKEEIVQLKQRRRTLKNRGYAASCRVKRVTQKEELEKQKAELQQEVEKLASENASMKLELDALRSKYEALQTFARTVAR
notes: human MafG, residues 21-123; Construct used for EMSA; also called MafG (21–123); source: E. coli BL21(DE3)-RIL, purified (phosphocellulose P11, HisTrap HP, Superdex 75); not shown: His6, N-terminal, cleaved
binding result [3]: binds

binding result [5]: binds
B4: human c-Jun fragment (residues 237–331) (domain or fragment, UniProt P05412 237-331, looked up)
chain: GETPPLSPIDMESQERIKAERKRMRNRIAASKCRKRKLERIARLEEKVKTLKAQNSELASTANMLREQVAQLKQKVMNHVNSGCQLMLTQQLQTF
notes: human c-Jun, residues 237-331; source: E. coli, expressed and purified similarly to the c-Fos fragment
